One data set concerns the target HIVNL-4.3. The settings on record: single round infection assay, TZM-b1 cells. The text has this: Two days later, infection cells were lysed and expression of luciferase activity measured.
HIV Neutralization assay.
These C-terminal peptides interact with the N-terminal coiled coil of gp41 thus blocking the refolding of gp41 into the six helical bundle structure ({115}, {116}. {117} and {39}).

Another data set has as its system mAb 2F5. As to the kind of experiment: Pull down assay of chrtm5 with mAb 2F5. Format: binding. As to the method: (§1) Lane 1—marker; Lane 2—control without antibody; Lane 3—mAb 2F5; and Lane 4—mAb 4E10.
(§2) Pull down assays were then performed to determine whether chrtm5 interacts with the neutralizing antibodies 2F5 and 4E10.

The next data set deals with mAb 4E10. Description: Pull down assay of chrtm5 with mAb 4E10. Format: binding. The procedure: as §1, §2
In the next data set the test system is mAb 2F5 Fabs. As to the kind of experiment: chrtm5/2F5 Fab complex, Superdex 200 gel filtration and SDS-PAGE. The following applies: gel filtration, peak analysed by SDS-PAGE. Format: binding. The procedure: Chrtm5/2F5 Fab complexes were formed and purified on a Superdex 200 gel filtration column.
Fractions corresponding to the major peak shown in FIG. 10 were separated by SDS-PAGE and stained with Coomassie brilliant blue.
The oligomeric nature of chrtm5 was then further confirmed by purifying chrtm5 in complex with mAb 2F5 Fabs. This complex formation shifts the gel filtration profile to a larger molecular weight and chrtm5/2F5-Fab complexes elute at ˜12.5 ml (FIG. 10).

The next data set concerns rabbits. As to the kind of experiment: Immunization of rabbits with chrtm5 proteoliposomes, Western blot of serum. The class given is in vivo. The settings on record: chrtm5 incorporated into proteoliposomes, two rounds of immunization, preliminary. The procedure:
The oligomeric forms of CHRTM5 are indicated by numbers. The same pattern was obtained with serum dilutions of 1:50, 1:100 and 1:1000.
Liposome preparation. Phospholipids were dissolved in chloroform and dried under a steam of nitrogen. Lipid films were resuspended in reconstitution buffer (25 mM HEPES pH 7.4, 0.1 M KCl). The turbid MLV suspension was passed 21 times through a polycarbonate membrane to give large unilamellar vesicles (LUV) with a diameter of 100 nm. LUVs were solubilized with 20 mM β-OG for one hour at 4° C., and afterwards incubated with protein for an additional hour. The proteoliposome solution was dialyzed with a Liposomat against reconstitution buffer for three hours at room temperature. Pure proteoliposomes were separated from excess protein by gel filtration through a Sephadex G-50 column and were collected by ultracentrifugation at 250000×g for one hour at 4° C. The pellet of pure proteoliposomes was resuspended in reconstitution buffer. The proteoliposomes were used in immunization studies to determine the immunogenicity in rabbits.
chrtm5 can be incorporated into liposomes, which were used for immunization studies.

Read-outs that look alike come from different tables or passages of the source.

As for enfuvirtide, the IC50 was found to be 0.2 µg/mL against HIVNL-4.3 (HIVNL-4.3, luciferase activity 2 days later) and 45 nM at HIVNL-4.3 (HIVNL-4.3, molar value in brackets).

B1: chrtm5: gp41 residues 118 to 200 with N-terminal HIS-tag, TEV and Enterokinase protease sites, transmembrane region, five cytoplasmic residues (protein)
chain: PCVKLTPLCVSLKCTDLKNDTNTNSSSGRMIMEKGEIKNCSFNISTSIRGKVQKEYAFFYKLDIIPIDNDTTSYKLTSCNTSV
modifications: left off: small tags and cut ends
notes: gp41 residues 118 to 200 with N-terminal HIS-tag, TEV and Enterokinase protease sites, transmembrane region, five cytoplasmic residues
Regarding B1, the “pull down by antibody 2F5” value in the data set on mAb 2F5 is given as “both antibodies pull down chrtm5”. In the data set on mAb 4E10, the “pull down by antibody 4E10” value is recorded as “both antibodies pull down chrtm5”. Also, the “complex formation with mAb 2F5 Fabs” value in the data set on mAb 2F5 Fabs was “the peak contains both chrtm5 and 2F5 Fab fragments”. Further, the immunogenicity result in the data set with rabbits is given as “immunogenic in rabbits”.
